Data from paper PMC10397247.

Legend:
P6bH1 = target: T1, P6bH1; experiment: two-hybrid library CCNG1;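 also: natural log of median RNA to DNA barcode read ratio; higher means stronger binding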
T1 chain: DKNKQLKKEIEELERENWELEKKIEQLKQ

P7bH1 = target: T2, P7bH1; experiment: two-hybrid library CCNG1;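 also: natural log of median RNA to DNA barcode read ratio; higher means stronger binding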
T2 chain: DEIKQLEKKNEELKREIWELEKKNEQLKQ

P4bH1 = target: T3, P4bH1; experiment: two-hybrid library CCNG1;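 also: natural log of median RNA to DNA barcode read ratio; higher means stronger binding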
T3 chain: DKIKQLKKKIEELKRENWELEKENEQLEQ

P8bH1 = target: T4, P8bH1; experiment: two-hybrid library CCNG1;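 also: natural log of median RNA to DNA barcode read ratio; higher means stronger binding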
T4 chain: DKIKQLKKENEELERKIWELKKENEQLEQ

P5bH1 = target: T5, P5bH1; experiment: two-hybrid library CCNG1;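 also: natural log of median RNA to DNA barcode read ratio; higher means stronger binding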
T5 chain: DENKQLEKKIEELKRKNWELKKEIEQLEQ

P9bH1 = target: T6, P9bH1; experiment: two-hybrid library CCNG1;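 also: natural log of median RNA to DNA barcode read ratio; higher means stronger binding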
T6 chain: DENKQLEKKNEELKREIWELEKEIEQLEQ

4H3010-bA = target: T7, 4H3010-bA; experiment: two-hybrid library CCNG1
T7 chain: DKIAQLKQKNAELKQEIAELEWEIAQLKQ

4H683-bA = target: T8, 4H683-bA; experiment: two-hybrid library CCNG1
T8 chain: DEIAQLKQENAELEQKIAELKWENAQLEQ

4H953-bA = target: T9, 4H953-bA; experiment: two-hybrid library CCNG1
T9 chain: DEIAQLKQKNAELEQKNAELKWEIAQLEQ

4H968-bA = target: T10, 4H968-bA; experiment: two-hybrid library CCNG1
T10 chain: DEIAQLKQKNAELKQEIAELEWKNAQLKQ

4H754-bA = target: T11, 4H754-bA; experiment: two-hybrid library CCNG1
T11 chain: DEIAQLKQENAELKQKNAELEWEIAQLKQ

4H2673-bA = target: T12, 4H2673-bA; experiment: two-hybrid library CCNG1
T12 chain: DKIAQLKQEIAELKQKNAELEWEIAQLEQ

4H575-bA = target: T13, 4H575-bA; experiment: two-hybrid library CCNG1
T13 chain: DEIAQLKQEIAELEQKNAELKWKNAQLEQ

4H2627-bA = target: T14, 4H2627-bA; experiment: two-hybrid library CCNG1
T14 chain: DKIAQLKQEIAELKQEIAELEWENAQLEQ

4H3427-bA = target: T15, 4H3427-bA; experiment: two-hybrid library CCNG1
T15 chain: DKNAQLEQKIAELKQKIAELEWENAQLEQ

4H4073-bA = target: T16, 4H4073-bA; experiment: two-hybrid library CCNG1
T16 chain: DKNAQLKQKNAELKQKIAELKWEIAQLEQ

4H855-bA = target: T17, 4H855-bA; experiment: two-hybrid library CCNG1
T17 chain: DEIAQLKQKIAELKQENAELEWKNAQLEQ

4H780-bA = target: T18, 4H780-bA; experiment: two-hybrid library CCNG1
T18 chain: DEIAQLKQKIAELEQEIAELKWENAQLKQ

4H2702-bA = target: T19, 4H2702-bA; experiment: two-hybrid library CCNG1
T19 chain: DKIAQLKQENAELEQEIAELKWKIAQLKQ

4H346-bA = target: T20, 4H346-bA; experiment: two-hybrid library CCNG1
T20 chain: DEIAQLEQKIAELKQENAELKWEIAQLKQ

4H3112-bA = target: T21, 4H3112-bA; experiment: two-hybrid library CCNG1
T21 chain: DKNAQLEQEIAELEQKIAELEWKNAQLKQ

4H457-bA = target: T22, 4H457-bA; experiment: two-hybrid library CCNG1; settings: mean of both orientations
T22 chain: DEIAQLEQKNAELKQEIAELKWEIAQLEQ

4H918-bA = target: T23, 4H918-bA; experiment: two-hybrid library CCNG1
T23 chain: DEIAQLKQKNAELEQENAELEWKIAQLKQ

4H3926-bA = target: T24, 4H3926-bA; experiment: two-hybrid library CCNG1
T24 chain: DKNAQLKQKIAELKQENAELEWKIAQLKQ

4H797-bA = target: T25, 4H797-bA; experiment: two-hybrid library CCNG1
T25 chain: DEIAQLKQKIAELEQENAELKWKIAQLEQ

4H510-AA = target: T26, 4H510-AA; experiment: two-hybrid library CCmax; settings: mean of both orientations
T26 chain: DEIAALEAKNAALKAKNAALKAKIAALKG

4H2687-AA = target: T27, 4H2687-AA; experiment: two-hybrid library CCmax; settings: mean of both orientations
T27 chain: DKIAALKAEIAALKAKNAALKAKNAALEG

4H2758-AA = target: T28, 4H2758-AA; experiment: two-hybrid library CCmax; settings: mean of both orientations
T28 chain: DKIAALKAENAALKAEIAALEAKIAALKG

4H87-AA = target: T29, 4H87-AA; experiment: two-hybrid library CCmax
T29 chain: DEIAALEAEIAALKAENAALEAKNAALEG

4H3134-AA = target: T30, 4H3134-AA; experiment: two-hybrid library CCmax; settings: mean of both orientations
T30 chain: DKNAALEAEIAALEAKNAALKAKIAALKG

4H2705-AA = target: T31, 4H2705-AA; experiment: two-hybrid library CCmax; settings: mean of both orientations
T31 chain: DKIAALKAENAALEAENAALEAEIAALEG

4H2646-AA = target: T32, 4H2646-AA; experiment: two-hybrid library CCmax
T32 chain: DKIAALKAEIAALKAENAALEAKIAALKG

4H3625-AA = target: T33, 4H3625-AA; experiment: two-hybrid library CCmax; settings: mean of both orientations
T33 chain: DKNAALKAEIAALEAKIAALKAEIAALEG

4H2873-AA = target: T34, 4H2873-AA; experiment: two-hybrid library CCmax; settings: mean of both orientations
T34 chain: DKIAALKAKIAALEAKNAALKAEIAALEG

4H775-AA = target: T35, 4H775-AA; experiment: two-hybrid library CCmax; settings: mean of both orientations
T35 chain: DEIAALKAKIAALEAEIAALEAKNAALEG

4H816-AA = target: T36, 4H816-AA; experiment: two-hybrid library CCmax; settings: mean of both orientations
T36 chain: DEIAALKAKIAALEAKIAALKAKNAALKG

4H2985-AA = target: T37, 4H2985-AA; experiment: two-hybrid library CCmax; settings: mean of both orientations
T37 chain: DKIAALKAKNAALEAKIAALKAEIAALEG

4H3409-AA = target: T38, 4H3409-AA; experiment: two-hybrid library CCmax; settings: mean of both orientations
T38 chain: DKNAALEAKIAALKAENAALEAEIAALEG

4H3940-AA = target: T39, 4H3940-AA; experiment: two-hybrid library CCmax; settings: mean of both orientations
T39 chain: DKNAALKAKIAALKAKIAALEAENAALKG

4H390-AA = target: T40, 4H390-AA; experiment: two-hybrid library CCmax; settings: mean of both orientations
T40 chain: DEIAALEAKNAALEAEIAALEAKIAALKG

4H278-AA = target: T41, 4H278-AA; experiment: two-hybrid library CCmax; settings: mean of both orientations
T41 chain: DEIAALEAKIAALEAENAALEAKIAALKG

In the case of DKIKQLKKKIEELKRENWELEKENEQLEQ [P4bH1], the interaction score (P6bH1) is reported as -0.487, the interaction score (P7bH1) is reported as -0.994 and the interaction score (P4bH1) is reported as -1.18. The interaction score (P8bH1) was -0.993, the interaction score (P5bH1) was -1.09 and the interaction score (P9bH1) was -0.46.

Work on DKIAQLKQEIAELKQEIAELEWENAQLEQ [4H2627-bA] yielded an interaction score (4H3010-bA) of -0.0123, an interaction score (4H683-bA) of -0.856 and an interaction score (4H953-bA) of -0.555. For the same binder, the interaction score (4H968-bA) was -0.842, the interaction score (4H754-bA) was -1.42 and the interaction score (4H2673-bA) was -0.531. It also gave an interaction score (4H575-bA) of 0.64, an interaction score (4H2627-bA) of 0.441 and an interaction score (4H3427-bA) of 1.03. The interaction score (4H4073-bA) was 1.07, the interaction score (4H855-bA) was -1.42 and the interaction score (4H780-bA) was -0.421. The interaction score (4H2702-bA) was 0.286, the interaction score (4H346-bA) was -1.21 and the interaction score (4H3112-bA) was 0.764. It also gave an interaction score (4H457-bA) of -0.508, an interaction score (4H918-bA) of -1.03 and an interaction score (4H3926-bA) of -0.308. For the same binder, the interaction score (4H797-bA) was -1.1.

With DKIAALKAEIAALKAENAALEAKIAALKG [4H2646-AA] the interaction score (4H510-AA) was 2.02, the interaction score (4H2687-AA) was 1.36 and the interaction score (4H2758-AA) was -0.75. It also gave an interaction score (4H87-AA) of 2.43, an interaction score (4H3134-AA) of 1.28 and an interaction score (4H2705-AA) of -1.19. It also gave an interaction score (4H2646-AA) of 1.66, an interaction score (4H3625-AA) of -0.363 and an interaction score (4H2873-AA) of 1.89. It also gave an interaction score (4H775-AA) of -0.478, an interaction score (4H816-AA) of -1.37 and an interaction score (4H2985-AA) of -0.411. It also gave an interaction score (4H3409-AA) of -0.0843, an interaction score (4H3940-AA) of -1.27 and an interaction score (4H390-AA) of 1.18. For the same binder, the interaction score (4H278-AA) was 0.745.

Work on DENKQLEKKIEELKRKNWELKKEIEQLEQ [P5bH1] yielded an interaction score (P6bH1) of 1.31, an interaction score (P7bH1) of -2.02 and an interaction score (P8bH1) of 0.944. It also gave an interaction score (P5bH1) of -0.609 and an interaction score (P9bH1) of -0.9.
